The values below come from article PMC10632352, “Nde1 promotes Lis1-mediated activation of dynein” (Nature Communications, 2023).

The chains are these.
T1: Lis1^39–410 (human, UniProt P43034 39-410)
T1 sequence (looked up): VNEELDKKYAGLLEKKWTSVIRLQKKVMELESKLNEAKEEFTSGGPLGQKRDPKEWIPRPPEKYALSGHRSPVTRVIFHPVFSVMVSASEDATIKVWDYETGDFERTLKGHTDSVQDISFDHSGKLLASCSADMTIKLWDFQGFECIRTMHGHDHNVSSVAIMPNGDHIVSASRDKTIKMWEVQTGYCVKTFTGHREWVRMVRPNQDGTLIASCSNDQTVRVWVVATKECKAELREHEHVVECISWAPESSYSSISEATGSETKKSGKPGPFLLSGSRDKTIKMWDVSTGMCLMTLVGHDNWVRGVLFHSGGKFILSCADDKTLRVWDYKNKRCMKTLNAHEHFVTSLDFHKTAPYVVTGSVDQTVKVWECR

B1: Nde1^E118A/R129A (Lis1 binding mutant of Nde1), Q9NXR1 1-335 (natural protein)
chain: MEDSGKTFSSEEEEANYWKDLAMTYKQRAENTQEELREFQEGSREYEAELETQLQQIETRNRDLLSENNRLRMELETIKEKFEVQHSEGYRQISALEDDLAQTKAIKDQLQKYIRELAQANDDLERAKAATIMSLEDFEQRLNQAIERNAFLESELDEKENLLESVQRLKDEARDLRQELAVQQKQEKPRTPMPSSVEAERTDTAVQATGSVPSTPIAHRGPSSSLNTPGSFRRGLDDSTGGTPLTPAARISALNIVGDLLRKVGALESKLASCRNLVYDQSPNRTGGPASGRSSKNRDGGERRPSSTSVPLGDKGLDTSCRWLSKSTTRSSSSC
modifications: here or on the partner: a fluorescent dye in the colocalization assays; LD655, or Alexa488 and biotin, where labelled
B2: human Nde1 (natural protein, UniProt Q9NXR1 1-335, looked up)
chain: B1 chain with A118E, A129R
modifications: LD655 or LD555 dye where labelled
notes: Nde1, human; Labelled through a SNAP or a ybbR tag; also called full-length Nde1; WT Nde1; source: Sf9 (baculovirus, pOmniBac), purified (IgG Sepharose, TEV elution, Superdex 200 Increase SEC)
B3: Nde1^E118K/R129E (Lis1 binding mutant of Nde1), Q9NXR1 1-335 (natural protein)
chain: B1 chain with A118K, A129E
modifications: here or on the partner: a fluorescent dye in the colocalization assays; LD655, or Alexa488 and biotin, where labelled
B4: Nde1^E118A/R129A (Lis1 binding mutant of Nde1) (natural protein, human, UniProt Q9NXR1 1-335, looked up)
chain: B1 chain
modifications: a fluorescent dye in the colocalization assays
notes: Nde1, human, with E118A and R129A; Probably in full-length Nde1; source: Sf9 (baculovirus, pOmniBac), purified (IgG Sepharose, TEV elution, SEC)
B5: Nde1^E47K (DIC binding mutant of Nde1) (natural protein, human, UniProt Q9NXR1 1-335, looked up)
chain: B1 chain with E47K, A118E, A129R
modifications: a fluorescent dye in the colocalization assays
notes: Nde1, human, with E47K; Probably in full-length Nde1; source: Sf9 (baculovirus, pOmniBac), purified (IgG Sepharose, TEV elution, SEC)
B6: Nde1^E47A (DIC binding mutant of Nde1) (natural protein, human, UniProt Q9NXR1 1-335, looked up)
chain: B1 chain with E47A, A118E, A129R
modifications: a fluorescent dye in the colocalization assays
notes: Nde1, human, with E47A; Probably in full-length Nde1; source: Sf9 (baculovirus, pOmniBac), purified (IgG Sepharose, TEV elution, SEC)
B7: Nde1^E118K/R129E (Lis1 binding mutant of Nde1) (natural protein, human, UniProt Q9NXR1 1-335, looked up)
chain: B1 chain with A118K, A129E
modifications: a fluorescent dye in the colocalization assays
notes: Nde1, human, with E118K and R129E; Probably in full-length Nde1; source: Sf9 (baculovirus, pOmniBac), purified (IgG Sepharose, TEV elution, SEC)
B8: human Lis1 (natural protein, UniProt P43034 1-410, looked up)
chain: MVLSQRQRDELNRAIADYLRSNGYEEAYSVFKKEAELDVNEELDKKYAGLLEKKWTSVIRLQKKVMELESKLNEAKEEFTSGGPLGQKRDPKEWIPRPPEKYALSGHRSPVTRVIFHPVFSVMVSASEDATIKVWDYETGDFERTLKGHTDSVQDISFDHSGKLLASCSADMTIKLWDFQGFECIRTMHGHDHNVSSVAIMPNGDHIVSASRDKTIKMWEVQTGYCVKTFTGHREWVRMVRPNQDGTLIASCSNDQTVRVWVVATKECKAELREHEHVVECISWAPESSYSSISEATGSETKKSGKPGPFLLSGSRDKTIKMWDVSTGMCLMTLVGHDNWVRGVLFHSGGKFILSCADDKTLRVWDYKNKRCMKTLNAHEHFVTSLDFHKTAPYVVTGSVDQTVKVWECR
modifications: benzylguanine dyes on the SNAP tag, by experiment: LD555, LD655, or Alexa488 and biotin
notes: Lis1 (noncatalytic beta subunit of PAF-AH1B), human; Homodimer by mass photometry; also called full-length Lis1; SNAP-Lis1; source: Sf9 (baculovirus, pOmniBac), purified (IgG Sepharose, TEV elution, Superdex 200 Increase SEC)
B9: mtLis1 (dynein-binding mutant of Lis1, R316A and W340A) (natural protein, human, UniProt P43034 1-410, looked up)
chain: B8 chain with R316A, W340A
modifications: LD555, or Alexa488 and biotin, on the SNAP tag in the colocalization assays
notes: Lis1, human, with R316A and W340A on the beta-propeller domain; forms a dimer like Lis1; source: Sf9 (baculovirus, pOmniBac), purified (IgG Sepharose, TEV elution, SEC)
B10: Nde1^1–190 (N-terminus of human Nde1) (domain or fragment, UniProt Q9NXR1 1-190, looked up)
chain: MEDSGKTFSSEEEEANYWKDLAMTYKQRAENTQEELREFQEGSREYEAELETQLQQIETRNRDLLSENNRLRMELETIKEKFEVQHSEGYRQISALEDDLAQTKAIKDQLQKYIRELEQANDDLERAKRATIMSLEDFEQRLNQAIERNAFLESELDEKENLLESVQRLKDEARDLRQELAVQQKQEKPR
modifications: LD555 dye in the analytical SEC
notes: Nde1, human, N-terminal coiled-coil, residues 1-190 (C-terminus truncated); also called Nde1^1–190-LD555; source: Sf9 (baculovirus, pOmniBac), purified (IgG Sepharose, TEV elution, Superdex 200 Increase SEC)

Data set [1] addresses wild-type human dynein (cytoplasmic dynein-1 complex) (human) (UniProt Q14204). The experiment in a line: single-molecule colocalization (TIRF); dynein (Alexa488 and biotin on its SNAP tag, 0.2 nM) immobilised on streptavidin / biotin-PEG glass; labelled prey in MB buffer (30 mM HEPES pH 7.0, 5 mM MgSO4, 1 mM EGTA, casein, pluronic, DTT, Taxol), 10 min, unbound prey not washed away; third proteins added.

The target in data set [2] is dynein mutant unable to attain the phi conformation (mtDyn) (human) (UniProt Q14204). The description is as above.
For the next data set, the target named is WT dynein-GFP (human) (UniProt Q14204). Briefly: real-time TIRF of the initiation of DDR motility; microtubules decorated with WT dynein-GFP and Nde1-LD655 in the absence of Lis1; dynactin and BicDR1 (one of them LD555-labelled) flown in during imaging.
Data set [3] deals with dynein mutant unable to attain the phi conformation (mtDyn) (human), Q14204.
Data set [4] concerns the molecule itself. Briefly: mass photometry; proteins diluted to 5–20 nM in 30 mM HEPES pH 7.4, 5 mM MgSO4, 1 mM EGTA, 10% glycerol; Refeyn TwoMP; profiles fitted to multiple Gaussians.
In the data set “human Lis1” the target is B8. The experiment in a line: cell-based or functional assay.
The next data set has as its target T1, Lis1^39–410. The experiment in a line: cell-based or functional assay.
Data set [5] has as its target dynein mutant unable to attain the phi conformation (mtDyn) (human) (UniProt Q14204).
In data set [6] the target is wild-type human dynein (cytoplasmic dynein-1 complex) (human) (UniProt Q14204). The experiment in a line: single-molecule colocalization (TIRF); dynein (Alexa488 and biotin on its SNAP tag, 0.2 nM) immobilised on streptavidin / biotin-PEG glass; labelled prey in MB buffer (30 mM HEPES pH 7.0, 5 mM MgSO4, 1 mM EGTA, casein, pluronic, DTT, Taxol), 10 min, unbound prey not washed away; third proteins added. The source holds these as a separate data set.

For data set [7], the target named is dynein-dynactin-BicDR1 complex assembled with wild-type human dynein (wtDDR) (human | pig | mouse) (UniProt Q14204). Briefly: three-color TIRF comigration on microtubules; 100 nM BicDR1-mNG, 10 nM LD555-Lis1 and 10 nM LD655-Nde1 preincubated with the DDR components; processive runs on surface-immobilised microtubules.

Where a chain is given by its changes, count along the chain named. In names and notes the source's numbering stands.

Chain of dynein-dynactin-BicDR1 complex assembled with wild-type human dynein (wtDDR) (human | pig | mouse) (Q14204 whole entry, looked up, one chain of several): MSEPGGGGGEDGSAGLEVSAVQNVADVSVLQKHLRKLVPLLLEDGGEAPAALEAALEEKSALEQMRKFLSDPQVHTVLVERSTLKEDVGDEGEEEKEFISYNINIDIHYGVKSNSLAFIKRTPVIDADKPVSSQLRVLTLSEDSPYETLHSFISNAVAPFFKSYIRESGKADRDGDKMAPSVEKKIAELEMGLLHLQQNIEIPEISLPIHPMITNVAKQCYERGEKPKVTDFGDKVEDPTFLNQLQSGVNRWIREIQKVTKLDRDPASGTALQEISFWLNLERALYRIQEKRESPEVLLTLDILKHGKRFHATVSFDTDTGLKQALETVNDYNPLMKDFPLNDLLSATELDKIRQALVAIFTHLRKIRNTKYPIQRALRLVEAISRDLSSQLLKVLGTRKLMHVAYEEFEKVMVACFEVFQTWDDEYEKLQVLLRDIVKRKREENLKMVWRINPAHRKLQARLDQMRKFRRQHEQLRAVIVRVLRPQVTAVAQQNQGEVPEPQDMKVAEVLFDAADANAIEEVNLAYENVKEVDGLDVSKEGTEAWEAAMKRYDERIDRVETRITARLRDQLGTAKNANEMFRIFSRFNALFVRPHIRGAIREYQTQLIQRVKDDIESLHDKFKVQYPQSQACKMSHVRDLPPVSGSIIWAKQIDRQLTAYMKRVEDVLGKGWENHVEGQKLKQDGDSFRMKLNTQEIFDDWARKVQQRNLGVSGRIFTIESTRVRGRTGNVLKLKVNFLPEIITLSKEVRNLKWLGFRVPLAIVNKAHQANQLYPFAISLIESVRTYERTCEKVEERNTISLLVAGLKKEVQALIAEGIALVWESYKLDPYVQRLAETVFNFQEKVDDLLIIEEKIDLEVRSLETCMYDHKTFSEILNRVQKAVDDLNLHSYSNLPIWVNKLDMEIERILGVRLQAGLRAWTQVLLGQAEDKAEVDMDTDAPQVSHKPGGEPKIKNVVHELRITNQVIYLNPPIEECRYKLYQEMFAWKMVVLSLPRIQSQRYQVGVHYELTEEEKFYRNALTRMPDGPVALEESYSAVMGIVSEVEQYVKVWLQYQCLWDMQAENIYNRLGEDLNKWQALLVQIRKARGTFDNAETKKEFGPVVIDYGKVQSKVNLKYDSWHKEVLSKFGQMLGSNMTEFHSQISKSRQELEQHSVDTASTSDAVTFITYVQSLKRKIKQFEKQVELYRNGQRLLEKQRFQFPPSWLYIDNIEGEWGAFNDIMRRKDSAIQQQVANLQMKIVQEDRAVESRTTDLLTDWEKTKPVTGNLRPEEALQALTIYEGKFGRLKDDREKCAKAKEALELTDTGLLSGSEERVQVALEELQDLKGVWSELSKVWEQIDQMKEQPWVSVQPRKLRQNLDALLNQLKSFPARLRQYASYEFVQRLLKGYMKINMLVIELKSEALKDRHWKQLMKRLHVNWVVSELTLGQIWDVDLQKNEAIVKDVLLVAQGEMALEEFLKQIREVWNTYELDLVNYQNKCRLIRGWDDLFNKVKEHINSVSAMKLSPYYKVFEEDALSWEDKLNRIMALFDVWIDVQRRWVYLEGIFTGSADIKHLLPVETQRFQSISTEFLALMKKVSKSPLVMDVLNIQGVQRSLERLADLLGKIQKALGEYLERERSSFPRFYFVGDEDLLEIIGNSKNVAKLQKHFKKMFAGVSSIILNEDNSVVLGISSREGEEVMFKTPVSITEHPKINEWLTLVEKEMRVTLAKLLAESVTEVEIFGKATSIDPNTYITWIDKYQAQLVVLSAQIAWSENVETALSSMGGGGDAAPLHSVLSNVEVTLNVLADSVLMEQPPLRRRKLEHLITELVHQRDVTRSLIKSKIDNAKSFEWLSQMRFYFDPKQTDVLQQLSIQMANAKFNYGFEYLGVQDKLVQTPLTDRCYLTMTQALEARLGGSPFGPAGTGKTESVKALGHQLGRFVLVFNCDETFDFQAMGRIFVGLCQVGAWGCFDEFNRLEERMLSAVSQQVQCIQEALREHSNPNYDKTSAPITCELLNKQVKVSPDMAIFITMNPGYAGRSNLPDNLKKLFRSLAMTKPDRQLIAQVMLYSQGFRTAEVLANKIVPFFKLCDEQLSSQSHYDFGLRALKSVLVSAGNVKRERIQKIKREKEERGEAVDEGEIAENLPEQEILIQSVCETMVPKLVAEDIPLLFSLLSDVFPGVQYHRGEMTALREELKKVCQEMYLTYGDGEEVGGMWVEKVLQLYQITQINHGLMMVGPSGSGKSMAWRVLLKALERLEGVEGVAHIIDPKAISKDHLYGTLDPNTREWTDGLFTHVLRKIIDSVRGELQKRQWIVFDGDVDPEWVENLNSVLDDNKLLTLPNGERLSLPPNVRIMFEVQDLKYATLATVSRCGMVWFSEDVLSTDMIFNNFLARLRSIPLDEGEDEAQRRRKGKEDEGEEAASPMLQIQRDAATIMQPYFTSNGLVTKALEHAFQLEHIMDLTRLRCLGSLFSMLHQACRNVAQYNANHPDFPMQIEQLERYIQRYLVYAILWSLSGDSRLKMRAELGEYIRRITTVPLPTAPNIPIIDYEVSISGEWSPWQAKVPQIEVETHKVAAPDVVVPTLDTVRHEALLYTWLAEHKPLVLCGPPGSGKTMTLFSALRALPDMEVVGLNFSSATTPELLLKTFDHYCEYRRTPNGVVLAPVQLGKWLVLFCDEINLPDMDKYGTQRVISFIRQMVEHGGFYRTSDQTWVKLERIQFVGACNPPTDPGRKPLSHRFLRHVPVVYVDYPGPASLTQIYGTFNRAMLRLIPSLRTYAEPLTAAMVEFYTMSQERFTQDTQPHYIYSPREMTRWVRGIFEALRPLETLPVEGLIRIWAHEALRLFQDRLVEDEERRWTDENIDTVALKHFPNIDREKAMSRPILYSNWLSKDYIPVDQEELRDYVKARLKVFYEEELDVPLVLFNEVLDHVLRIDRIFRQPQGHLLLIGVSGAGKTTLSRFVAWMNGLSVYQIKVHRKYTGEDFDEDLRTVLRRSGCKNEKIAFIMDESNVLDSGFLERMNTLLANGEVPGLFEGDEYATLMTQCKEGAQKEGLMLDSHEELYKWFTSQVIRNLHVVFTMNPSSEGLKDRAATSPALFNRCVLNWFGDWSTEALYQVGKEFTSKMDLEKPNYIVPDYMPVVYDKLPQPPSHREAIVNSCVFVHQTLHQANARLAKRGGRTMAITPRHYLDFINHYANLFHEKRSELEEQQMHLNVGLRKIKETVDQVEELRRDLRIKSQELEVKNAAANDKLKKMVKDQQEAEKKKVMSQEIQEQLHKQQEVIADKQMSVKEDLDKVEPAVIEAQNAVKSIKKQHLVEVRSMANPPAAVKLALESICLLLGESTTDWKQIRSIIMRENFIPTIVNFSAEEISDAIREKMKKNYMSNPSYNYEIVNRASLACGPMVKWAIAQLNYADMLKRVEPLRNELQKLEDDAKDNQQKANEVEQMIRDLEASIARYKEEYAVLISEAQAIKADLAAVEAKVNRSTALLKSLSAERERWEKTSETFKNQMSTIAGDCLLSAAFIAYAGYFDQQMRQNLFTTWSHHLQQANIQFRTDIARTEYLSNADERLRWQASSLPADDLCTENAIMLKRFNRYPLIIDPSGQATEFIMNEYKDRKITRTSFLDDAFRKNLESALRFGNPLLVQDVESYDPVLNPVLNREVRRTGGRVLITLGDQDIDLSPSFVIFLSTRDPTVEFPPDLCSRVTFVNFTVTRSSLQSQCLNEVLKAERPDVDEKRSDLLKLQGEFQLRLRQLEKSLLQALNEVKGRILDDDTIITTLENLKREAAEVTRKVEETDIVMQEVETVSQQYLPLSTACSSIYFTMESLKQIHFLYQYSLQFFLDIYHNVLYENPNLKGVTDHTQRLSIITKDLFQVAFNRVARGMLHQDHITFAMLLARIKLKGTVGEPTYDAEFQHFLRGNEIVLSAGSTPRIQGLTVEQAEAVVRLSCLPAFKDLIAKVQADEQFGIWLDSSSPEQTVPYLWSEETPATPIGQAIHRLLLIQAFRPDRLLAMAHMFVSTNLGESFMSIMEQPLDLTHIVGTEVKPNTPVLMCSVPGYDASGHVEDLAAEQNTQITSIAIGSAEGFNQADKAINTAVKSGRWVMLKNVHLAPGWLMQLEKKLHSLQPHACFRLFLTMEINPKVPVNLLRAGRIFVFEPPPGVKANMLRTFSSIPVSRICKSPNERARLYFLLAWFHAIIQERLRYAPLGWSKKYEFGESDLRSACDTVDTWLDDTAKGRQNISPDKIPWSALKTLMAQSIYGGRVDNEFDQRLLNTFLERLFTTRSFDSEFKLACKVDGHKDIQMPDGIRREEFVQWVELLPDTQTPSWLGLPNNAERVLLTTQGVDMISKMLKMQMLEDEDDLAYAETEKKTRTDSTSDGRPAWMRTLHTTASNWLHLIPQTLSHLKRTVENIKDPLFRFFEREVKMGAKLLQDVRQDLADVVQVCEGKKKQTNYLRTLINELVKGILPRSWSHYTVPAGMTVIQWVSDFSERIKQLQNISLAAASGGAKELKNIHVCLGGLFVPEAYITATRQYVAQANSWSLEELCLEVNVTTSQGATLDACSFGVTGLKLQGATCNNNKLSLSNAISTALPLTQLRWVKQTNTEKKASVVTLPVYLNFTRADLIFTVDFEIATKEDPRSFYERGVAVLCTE

Regarding “pig brain dynactin (from UniProt A0A287B8J2 1-1281) (complex)”, the percent reduction of Nde1 colocalization to dynein (150 nM dynactin, 25 nM Nde1) in [1] was 37%; in data set [2] it was 75%. Further, the percent of dynein-colocalized Nde1 spots released in the data set with WT dynein-GFP (human) came out at 96%.

For the molecule B1, the decrease of the frequency of mtDDR runs with 250 nM Nde1 mutant in the absence of Lis1 in data set [3] stood at 50%. As to B2, in data set [4], the “stoichiometry N” value stood at 2. For the same molecule, in the data set with human Lis1, the “wtDDR run frequency on addition of 10 nM Nde1 with full-length Lis1” value is more than 10 fold. In addition, the “wtDDR run frequency on addition of 10 nM Nde1 with 100 nM Lis1^39–410” value in the data set with Lis1^39–410 is 3.2 fold. For the same molecule, in data set [5], the decrease of the frequency of mtDDR runs with 250 nM Nde1 in the absence of Lis1 came to 50%. In data set [6], this molecule showed an average bound time of 21 s and an average bound time with Lis1 added of 42 s.

On to B3, for which the decrease of the frequency of mtDDR runs with 250 nM Nde1 mutant in the absence of Lis1 in data set [3] is 50%. Regarding B4, the “stoichiometry N” value in data set [4] came to 2. Still for that read-out and setting: the figure for B5 is 2; for B6 it is 2; for B7 it is 2. Regarding B8, in data set [4], the “stoichiometry N” value stood at 2. This molecule displayed a percent of DDR complexes that co-migrate with Lis1 in [7] of 70%. Also, in [6], the average bound time is 12 s and the average bound time with Nde1 added was 35 s. As to B9, the “stoichiometry N” value in [4] is 2.

On to B10, for which the “stoichiometry N” value in data set [4] is 2.
